# US20060240053
row,Substance,"autocleavage in acetate buffer pH 4.5, SDS-PAGE over time"
1,GST-SASPase C27 mutant A/D (aspartic acid No. 212 substituted to alanine),"The mutated forms (A/D) and (E/D), for their part, do not autoactivate"
2,GST-SASPase C27 mutant E/D (aspartic acid No. 212 substituted to glutamic acid),"The mutated forms (A/D) and (E/D), for their part, do not autoactivate"
